Values joined by “and” are separate entries in the source; they are usually repeats but may differ in a detail not shown here. Equal values may be shown once. Ends that are not written are not given here.
Tests used:
[1] = Absolute quantum yield, integrated sphere technique; format: physicochemical
Method: Figure R6. Stability of DGC in AD brains. Monitoring fluorescence intensity of DGC in brain of WT mice and 3-month-old APP/PS1 mice for 24 h (left). In vivo and ex vivo NIR-II imaging of brains after DGC injected for 24 h (right).
The absolute quantum yield (QY) of DGC probe was measured to be ~0.7% using an […]
for biological applications. Although this QY is not high, but sufficient to produce a bright signal in the AD mouse brain for detection in vivo in this study.
Reviewer 3: The co-localization coefficient should be calculated in Figure 2d. […]
was calculated by Image J software. The co-localization coefficient (Pearson's correlation coefficient) of DGC and CTGF antibodies in Figure 2d was 0.946 (Fig. R15).
Figure R15. The co-localization coefficient (Pearson's correlation coefficient) of DGC and CTGF […]

[2] = system: CTGF; test: Chromogenic DAB oxidation in DGC-labelled cells; format: cell-based; settings: 40 μM DGC 4 °C overnight + DAB, Image Pro Plus
Method: To observe accurately the expression level of CTGF in cells with the naked eye, we optimized the conditions for labeling U87MG, SH-SY5Y, and CTX TNA2 cells stained with DGC. According to the study, the optimal incubation concentration of DGC (40 μM) was used to determine the optimal culture conditions using the DAB Horseradish Peroxidase Color Development Kit. After the cells were co-stained by DGC at 4 °C overnight, a DAB chromogenic agent was added to the cells. Since DGC can label CTGF proteins on the cells, when DAB chromogenic is added, DGC on the cells can catalyze DAB to produce an insoluble brown precipitate to attach to the cells.

[3] = Dynamic light scattering, hydrated particle size; format: physicochemical; settings: dynamic light scattering (Zetasizer Nano), aqueous
Text: The fluorescence spectrophotometer (Shimadzu RF-5301, Kyoto, Japan) and NIR spectrograph FLS1000 was used to acquire the fluorescence and NIR spectra of the as-synthesized DGC. The mean hydrated particle size and size distribution of DGC were further documented by a phase analysis light-scattering technique (Zetasizer Nano, Malvern). The synthetic DGC was also observed by using a High-Resolution Transmission Electron Microscope (HRTEM, FEI Talos F200X-G2) at the accelerated voltage of 200 kV.

[4] = Monitoring DGC in blood serum by ex vivo NIR-II imaging; parameters: species or system C57BL/6J mice; settings: NIR-II imaging and ICP-MS quantification of DGC in mouse serum after tail vein injection
Method: The C57BL/6J mice (male and female) were injected with DGC (20 mg/kg) through the tail vein (n = 3). After injection, the blood samples were collected at 0.083, 0.25, 0.5, 1, 2, 4, 8, 10, 12, 24, and 48 h through the posterior orbital vein of the mice. The serum was obtained by centrifugation (1200×g for 5 min) to remove blood cells. The serum samples were observed through the In vivo Master (Grand-imaging Technology) equipped with an InGaAs camera C-RED2 (Firstlight) (λ ex = 808 nm, 1000 nm longpass (LP) filter (Edmund Optics)) camera to obtain the NIR-II image (exposure time: 50 ms). ImageJ software was used to process and analyze the images obtained in the experiment, and the DGC content in the sample was evaluated according to the fluorescence intensity of the sample.

[5] = Pharmacokinetic study of DGC in C57BL/6J mice (serum Au by ICP-MS); format: in vivo; settings: for AUC(0-t) (AUClast) / AUC(0-∞) (AUCINF_obs) / AµMC(0-t) (AUMClast) / AµMC(0-∞) (AUMCINF_obs) / Cmax / MRT(0-t) (MRTlast) / MRT(0-∞) (MRTINF_obs) / Vz/F (Vz_obs) / elimination half-life t1/2z (HL_Lambda_z) / CLz/F (Cl_obs) / Tmax: 20 mg/kg i.v. single dose, n=3; for AUC(0-t) (AUClast) / AUC(0-∞) (AUCINF_obs) / AµMC(0-t) (AUMClast) / AµMC(0-∞) (AUMCINF_obs) / Cmax / MRT(0-t) (MRTlast) / MRT(0-∞) (MRTINF_obs) / Vz/F (Vz_obs) / elimination half-life t1/2z (HL_Lambda_z) / CLz/F (Cl_obs) / Tmax / Clast / C0 / Cmax_D / Lambda_z: serum Au by ICP-MS; for AUC(0-t) (AUClast) / AUC(0-∞) (AUCINF_obs) / AµMC(0-t) (AUMClast) / AµMC(0-∞) (AUMCINF_obs) / Cmax / MRT(0-t) (MRTlast) / MRT(0-∞) (MRTINF_obs) / Vz/F (Vz_obs) / elimination half-life t1/2z (HL_Lambda_z) / CLz/F (Cl_obs) / Tmax / Clast_pred / AUCINF_D_obs / AUCINF_D_pred / AUCINF_pred / AUCall / AUClast_D / AUMCINF_pred / Cl_pred / MRTINF_pred / Vss_obs / Vss_pred / Vz_pred / C0 / Cmax_D / Lambda_z: WinNonlin; for CLz/F (Cl_obs) / Tmax: 20 mg/kg; for Clast_pred / Clast / AUCINF_D_obs / AUCINF_D_pred / AUCINF_pred / AUCall / AUClast_D / AUMCINF_pred / Cl_pred / MRTINF_pred / Vss_obs / Vss_pred / Vz_pred / C0 / Cmax_D / Lambda_z: 20 mg/kg i.v.; for Clast_pred / Clast: Tlast 48 h
Method: Male and female mice were given a single intravenous dose of 20 mg/ kg (n = 3). The blood of posterior orbital venous plexus was collected at continuous time points (0.083, 0.25, 0.5, 1, 2, 4, 8, 10, 12, 24, and 48 h) and the serum was rapid separation by centrifugation (1200×g at 4 °C, 10 min). Au content in the serum sample was detected by ICP-MS. The pharmacokinetic index was obtained by using winnonlin8.4 […] model.

In the case of “DGC: CTGF-targeting peptide-coated gold nanocluster: one Au26 gold nanocluster coated by eight DAG cyclic peptides, NIR-II and red fluorescence (CDAGRKQKC; also: cyclic peptide, ring not given here, eight peptides on one Au26 nanocluster via Cys Au-S bonds)”, the “absolute quantum yield (QY)” value [1] is reported as ~ 0.7%, the “DAB chromogenic imaging intensity” value ([2]; CTX TNA2 cells, replicate 1) is reported as 0.0128 and the “DAB chromogenic imaging intensity” value ([2]; CTX TNA2 cells, replicate 2) is reported as 0.01748. For the same substance, the “DAB chromogenic imaging intensity” value ([2]; CTX TNA2 cells, replicate 3) was 0.0191, the “DAB chromogenic imaging intensity” value ([2]; SH-SY5Y cells, replicate 1) was 0.04369 and the “DAB chromogenic imaging intensity” value ([2]; SH-SY5Y cells, replicate 2) was 0.03714. The “DAB chromogenic imaging intensity” value ([2]; SH-SY5Y cells, replicate 3) was 0.0465, the “DAB chromogenic imaging intensity” value ([2]; U87MG cells, replicate 1) was 0.1444 and the “DAB chromogenic imaging intensity” value ([2]; U87MG cells, replicate 2) was 0.1042. For the same substance, the “DAB chromogenic imaging intensity” value ([2]; U87MG cells, replicate 3) was 0.1075, the average hydrated size [3] was ~ 2.85 nm and the “stability in blood circulation” value [4] was “high stability during internal circulation”. For the same substance, the “AUC(0-t) (AUClast)” value ([5]; female C57BL/6J mice) was 650.995 µg·h/mL, the “AUC(0-∞) (AUCINF_obs)” value ([5]; female C57BL/6J mice) was 779.367 µg·h/mL and the “AµMC(0-t) (AUMClast)” value ([5]; female C57BL/6J mice) was 10136.5 h*h*mg/L. For the same substance, the “AµMC(0-∞) (AUMCINF_obs)” value ([5]; female C57BL/6J mice) was 19964.5 h*h*mg/L, the Cmax ([5]; female C57BL/6J mice) was 191.26 µg/mL and the “MRT(0-t) (MRTlast)” value ([5]; female C57BL/6J mice) was 15.5708 h. For the same substance, the “MRT(0-∞) (MRTINF_obs)” value ([5]; female C57BL/6J mice) was 25.6162 h, the “Vz/F (Vz_obs)” value ([5]; female C57BL/6J mice) was 0.7329 L/kg and the “elimination half-life t1/2z (HL_Lambda_z)” value ([5]; female C57BL/6J mice) was 19.7951 h. For the same substance, the “CLz/F (Cl_obs)” value ([5]; female C57BL/6J mice) was 0.5 mL/min/kg and 0.4277 mL/min/kg, the Tmax ([5]; female C57BL/6J mice) was 4.8 min and 4.98 min and the Clast_pred ([5]; female C57BL/6J mice) was 4.584 µg/mL. It also gave a Clast ([5]; female C57BL/6J mice) of 4.495 µg/mL, an AUCINF_D_obs ([5]; female C57BL/6J mice) of 38.9684 kg·mg·h/L/mg and an AUCINF_D_pred ([5]; female C57BL/6J mice) of 39.095 kg·mg·h/L/mg. The AUCINF_pred ([5]; female C57BL/6J mice) was 781.9 µg·h/mL, the AUCall ([5]; female C57BL/6J mice) was 650.995 µg·h/mL and the AUClast_D ([5]; female C57BL/6J mice) was 32.5498 kg·mg·h/L/mg. For the same substance, the AUMCINF_pred ([5]; female C57BL/6J mice) was 20158.4 h*h*mg/L, the Cl_pred ([5]; female C57BL/6J mice) was 0.4263 mL/min/kg and the MRTINF_pred ([5]; female C57BL/6J mice) was 25.7813 h. It also gave a Vss_obs ([5]; female C57BL/6J mice) of 0.6574 L/kg, a Vss_pred ([5]; female C57BL/6J mice) of 0.6595 L/kg and a Vz_pred ([5]; female C57BL/6J mice) of 0.7305 L/kg. For the same substance, the C0 ([5]; female C57BL/6J mice) was 267.189 µg/mL, the Cmax_D ([5]; female C57BL/6J mice) was 9.563 kg·mg/L/mg and the Lambda_z ([5]; female C57BL/6J mice) was 0.03502 h⁻¹. For the same substance, the “elimination half-life (t1/2z)” value ([5]; in mice, sex not specified) was “about 20 h”, the “AUC(0-t) (AUClast)” value ([5]; male C57BL/6J mice) was 615.219 µg·h/mL and the “AUC(0-∞) (AUCINF_obs)” value ([5]; male C57BL/6J mice) was 735.649 µg·h/mL. The “AµMC(0-t) (AUMClast)” value ([5]; male C57BL/6J mice) was 8803.77 h*h*mg/L, the “AµMC(0-∞) (AUMCINF_obs)” value ([5]; male C57BL/6J mice) was 18299.4 h*h*mg/L and the Cmax ([5]; male C57BL/6J mice) was 172.688 µg/mL. The “MRT(0-t) (MRTlast)” value ([5]; male C57BL/6J mice) was 14.31 h, the “MRT(0-∞) (MRTINF_obs)” value ([5]; male C57BL/6J mice) was 24.8751 h and the “Vz/F (Vz_obs)” value ([5]; male C57BL/6J mice) was 0.8386 L/kg. The “elimination half-life t1/2z (HL_Lambda_z)” value ([5]; male C57BL/6J mice) was 21.3817 h, the “CLz/F (Cl_obs)” value ([5]; male C57BL/6J mice) was 0.5 mL/min/kg and 0.4532 mL/min/kg and the Tmax ([5]; male C57BL/6J mice) was 4.8 min and 4.98 min. It also gave a Clast_pred ([5]; male C57BL/6J mice) of 3.998 µg/mL, a Clast ([5]; male C57BL/6J mice) of 3.904 µg/mL and an AUCINF_D_obs ([5]; male C57BL/6J mice) of 36.7825 kg·mg·h/L/mg. For the same substance, the AUCINF_D_pred ([5]; male C57BL/6J mice) was 36.9275 kg·mg·h/L/mg, the AUCINF_pred ([5]; male C57BL/6J mice) was 738.551 µg·h/mL and the AUCall ([5]; male C57BL/6J mice) was 615.219 µg·h/mL. For the same substance, the AUClast_D ([5]; male C57BL/6J mice) was 30.7609 kg·mg·h/L/mg, the AUMCINF_pred ([5]; male C57BL/6J mice) was 18528.2 h*h*mg/L and the Cl_pred ([5]; male C57BL/6J mice) was 0.4513 mL/min/kg. For the same substance, the MRTINF_pred ([5]; male C57BL/6J mice) was 25.0872 h, the Vss_obs ([5]; male C57BL/6J mice) was 0.6763 L/kg and the Vss_pred ([5]; male C57BL/6J mice) was 0.6794 L/kg. It also gave a Vz_pred ([5]; male C57BL/6J mice) of 0.8353 L/kg, a C0 ([5]; male C57BL/6J mice) of 204.126 µg/mL and a Cmax_D ([5]; male C57BL/6J mice) of 8.634 kg·mg/L/mg. The Lambda_z ([5]; male C57BL/6J mice) was 0.03242 h⁻¹.

From PMC11169542, “A probe for NIR-II imaging and multimodal analysis of early Alzheimer’s disease by targeting CTGF” (Nature Communications, 2024)
